Measured values as given in PMC2783425 (Biochemistry, 2009).

Columns and labels:
SufA (E. coli) = SufA (E. coli) (UniProt P77667); experiment: SPR
SufB = target: T1, SufB (E. coli, UniProt P77522 1-495); experiment: cross-linking
T1 sequence (looked up): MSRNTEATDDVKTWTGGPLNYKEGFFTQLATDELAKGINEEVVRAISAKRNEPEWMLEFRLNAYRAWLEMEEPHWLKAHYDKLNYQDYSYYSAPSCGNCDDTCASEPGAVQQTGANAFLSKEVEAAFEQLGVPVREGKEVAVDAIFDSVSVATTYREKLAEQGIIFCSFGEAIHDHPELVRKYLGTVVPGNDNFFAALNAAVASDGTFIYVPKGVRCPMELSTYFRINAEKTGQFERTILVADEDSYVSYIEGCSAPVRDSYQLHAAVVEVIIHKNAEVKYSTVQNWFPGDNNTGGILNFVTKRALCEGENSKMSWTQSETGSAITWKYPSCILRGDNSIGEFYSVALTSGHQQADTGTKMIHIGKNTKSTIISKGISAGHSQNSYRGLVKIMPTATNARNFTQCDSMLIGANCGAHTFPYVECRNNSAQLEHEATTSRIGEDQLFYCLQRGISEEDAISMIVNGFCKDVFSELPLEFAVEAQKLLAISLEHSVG

SufC = target: T2, SufC (E. coli, UniProt P77499 1-248); experiment: cross-linking
T2 sequence (looked up): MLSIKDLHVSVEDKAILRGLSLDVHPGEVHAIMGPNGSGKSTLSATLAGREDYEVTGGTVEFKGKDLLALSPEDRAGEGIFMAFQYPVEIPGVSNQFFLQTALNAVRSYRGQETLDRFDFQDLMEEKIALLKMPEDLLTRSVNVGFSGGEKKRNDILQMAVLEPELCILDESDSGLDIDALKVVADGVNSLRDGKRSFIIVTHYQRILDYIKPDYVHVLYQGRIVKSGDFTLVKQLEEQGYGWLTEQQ

SEC = target: the molecule itself; experiment: SEC
(His)6-SufS = target: T3, (His)6-SufS (E. coli, UniProt P77444 1-406); experiment: SPR
T3 sequence (looked up): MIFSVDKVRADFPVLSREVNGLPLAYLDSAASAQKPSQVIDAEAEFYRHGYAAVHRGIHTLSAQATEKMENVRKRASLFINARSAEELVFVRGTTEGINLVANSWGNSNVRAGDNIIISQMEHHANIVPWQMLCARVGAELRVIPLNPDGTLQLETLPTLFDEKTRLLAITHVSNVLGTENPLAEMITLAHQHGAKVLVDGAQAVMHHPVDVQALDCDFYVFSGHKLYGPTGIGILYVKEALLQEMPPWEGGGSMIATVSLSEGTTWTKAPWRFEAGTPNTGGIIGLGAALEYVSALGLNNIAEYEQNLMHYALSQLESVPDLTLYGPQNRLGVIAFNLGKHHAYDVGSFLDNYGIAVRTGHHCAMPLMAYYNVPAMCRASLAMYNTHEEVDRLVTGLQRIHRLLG

“(His)6-SufS (from UniProt P77444 1-406) (enzyme)” was tested, and the Kd (SufA (E. coli)) was 1400 nM.

B1: SufA pre-labeled with Mts-Atf-Biotin (natural protein, E. coli, UniProt P77667 1-122, looked up)
chain: MDMHSGTFNPQDFAWQGLTLTPAAAIHIRELVAKQPGMVGVRLGVKQTGCAGFGYVLDSVSEPDKDDLLFEHDGAKLFVPLQAMPFIDGTEVDFVREGLNQIFKFHNPKAQNECGCGESFGV
modifications: Mts-Atf-biotin on cysteine residues (reducible disulfide bonds)
B1: binds (SufB); binds (SufC).

B2: SufA (natural protein, E. coli, UniProt P77667 1-122, looked up)
chain: B1 chain
B2 was tested, and the “stoichiometry N” value (SEC) was 2.

B3: SufE (natural protein, E. coli, UniProt P76194 1-138, looked up)
chain: MALLPDKEKLLRNFLRCANWEEKYLYIIELGQRLPELRDEDRSPQNSIQGCQSQVWIVMRQNAQGIIELQGDSDAAIVKGLIAVVFILYDQMTPQDIVNFDVRPWFEKMALTQHLTPSRSQGLEAMIRAIRAKAAALS
B3 was tested, and the Kd ((His)6-SufS) was 1.1 nM.
